No end group written: not given here. *: point of attachment. Biotin = O=C1N[C@H]2[C@H](CS[C@H]2CCCCC(=O)*)N1
How the values were obtained:
[1] = target: T1, RbAp48 (full length, residues 1-425), purified recombinant (UniProt Q09028 1-425); test: SPR
[2] = target: T1, RbAp48 (full length, residues 1-425), …; test: ITC

T1 sequence (Q09028 whole entry, the tested form may be a part): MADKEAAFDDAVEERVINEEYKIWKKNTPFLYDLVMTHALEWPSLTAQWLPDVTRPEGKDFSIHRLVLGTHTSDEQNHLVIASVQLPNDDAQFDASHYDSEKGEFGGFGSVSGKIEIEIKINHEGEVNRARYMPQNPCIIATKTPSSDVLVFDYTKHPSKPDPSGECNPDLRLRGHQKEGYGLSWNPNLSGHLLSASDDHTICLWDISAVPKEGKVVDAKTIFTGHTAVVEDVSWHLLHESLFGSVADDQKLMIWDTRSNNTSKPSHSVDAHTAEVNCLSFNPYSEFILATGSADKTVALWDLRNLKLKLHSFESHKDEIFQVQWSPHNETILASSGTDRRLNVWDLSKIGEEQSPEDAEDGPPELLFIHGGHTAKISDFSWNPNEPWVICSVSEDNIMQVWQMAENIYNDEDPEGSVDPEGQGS

Binder	Ka [1] [M⁻¹]	Ka [2] [M⁻¹]
Biotin-MSRRKQSNPRQIKRS [biotinylated FOG-1-(1-15) peptide]	1.36e+06	–
MSRRKQSNPRQI [FOG-1-(1-12) peptide]	–	1.54e+06

— article PMC3020727 (The Journal of Biological Chemistry, 2010)
